# Patent US20220064648
# Like-named read-outs stand apart in the source and are kept apart here.
# Tests used:
# [1] = target: SNAP25 full length (Homo sapiens) (UniProt P60880); conditions: W indole-dU, X amine-dU, direct ELISA signal
# [2] = test system: Negative control random peptide; assay: ELONA; conditions: W indole, X amine
# Chain of SNAP25 full length (Homo sapiens) (P60880 whole entry): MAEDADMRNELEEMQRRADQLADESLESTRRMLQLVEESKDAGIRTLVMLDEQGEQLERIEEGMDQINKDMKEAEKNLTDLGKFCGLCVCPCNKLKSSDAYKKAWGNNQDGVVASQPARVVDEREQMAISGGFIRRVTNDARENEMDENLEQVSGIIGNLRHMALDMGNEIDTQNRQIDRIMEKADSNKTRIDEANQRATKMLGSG
sequence,measurement,setting,value
TTTTTAACACGACACCACTGTGCCCACCACAGTTCACTGAAGTGGGCCCATG [PEP 3.14],binding signal,"[1]; Y phenol-dU [19,34 (phenol-dU), 38 (indole-dU)], negative peptide 52",8
TTTTTAACACGACAGCACTGTGCACAGCACAGCTCAAGGGTGTGGGCCCATG [PEP 3.10],binding signal,"[1]; Y phenol-dU [phenol-dU@19,34], negative peptide 51",10
TTTTTAACACGACAGCACTGTGGTTCGCGAACCTCAAGCTCGTCGTGCCATG [PEP 3.02],binding signal,"[2]; Y phenol modified dU [19Y,24W,25X,34Y,40W,43X,46Y]",59 ELISA signal
TTTTTAACACGACAGCCCTGTGCAGGCCGAACGGCGTTGATGTCGTGCCATG [PEP 4.12],binding signal,"[1]; Y phenol-dU [19,46 phenol-dU, 38 indole-dU, 43 amine-dU], negative peptide 3",0
TTTTTAACACGACATAGCTGTGACAGGCACAGGTCATGGGAGTCGTGCCATG [PEP 1.19],binding signal,"[1]; Y phenol-dU [phenol-dU @15,19,34,46, amine-dU @43], negative peptide 3",0
TTTTTAACACGACATAGGTTCGCTGGTCACAGAATGTTGTGGTGGGCCCATG [PEP 2.09],binding signal,"[1]; Y phenol-dU [15,19,20,24,27,35,38,40], negative peptide 5",9
TTTTTAACACGACATATGTTCGACGGACACAGTGTGTGGCGGTCGTGCCATG [PEP 4.09],binding signal,"[2]; Y phenol modified dU [15,17,19,20,35,43,46]",0 ELISA signal
TTTTTAACACGACATCACTGTGGAAGACACAGGACGTGCGTGTCGTGCCATG [PEP 3.22],binding signal,"[1]; Y phenol-dU [15,19,46 (phenol-dU), 43 (amine-dU)], negative peptide 26",7
TTTTTAACACGACCATCCTGTGCCTCACGAACTCATTGCCCGTCGTGCCATG [PEP 1.02],binding signal,"[2]; Y phenol modified dU [16,19,25,36,43,46]",15 ELISA signal
TTTTTAACACGACCATTCTGTGCCAGCCGAACTCCGTGCTGGTGGGCCCATG [PEP 4.08],binding signal,"[1]; Y phenol-dU [16,17,40 indole-dU, 19 phenol-dU], negative peptide 5",9
TTTTTAACACGACCGCCCTGTGGGCAACACAGGGATCTGCAGTCGTGCCATG [PEP 1.24],binding signal,"[1]; Y phenol-dU [phenol-dU @19,46, indole-dU @36,38, amine-dU @43], negative peptide 9",8
TTTTTAACACGACGCCAGTTCGAAGGTCACAGTTATTTGGCGTCGTGCCATG [PEP 1.11],binding signal,"[1]; Y phenol-dU [19 indole-dU, 20 phenol-dU, 27 amine-dU, 34 phenol-dU, 36 indole-dU, 38 indole-dU, 43 amine-dU, 46 phenol-dU], negative peptide 11",4
TTTTTAACACGACGCTCCTGTGACAGCCGAACATCATTGGTGTCGTGCCATG [PEP 1.04],binding signal,"[1]; Y phenol-dU [16 indole-dU, 19 phenol-dU, 34 phenol-dU, 38 indole-dU, 43 amine-dU, 46 phenol-dU], negative peptide 4",5
TTTTTAACACGACGTCGCTGTGGTCAACGAACAGATACAACGTCGTGCCATG [PEP 2.07],binding signal,"[1]; Y phenol-dU [15,19,24,36,43,46], negative peptide 17",8
TTTTTAACACGACGTGACTGTGAGAGGCACAGTTTGGGGGCGTGGGCCCATG [PEP 4.15],binding signal,"[1]; Y phenol-dU [15,19,34,35 phenol-dU], negative peptide 7",4
TTTTTAACACGACGTTACTGTGGTCACCACAGGATGAGCCTGTCGTGCCATG [PEP 2.01],binding signal,"[2]; Y phenol modified dU [15,16,19,24,35,43,46]",204 ELISA signal
TTTTTAACACGACGTTACTGTGGTCACCACAGGATGAGCTTGTCGTGCCATG [PEP 2.15],binding signal,"[1]; Y phenol-dU [15,16,19,24,35,40,43,46], negative peptide 9",0
TTTTTAACACGACGTTACTGTGGTCACCACAGGATGAGGCTGTCGTGCCATG [PEP 2.17],binding signal,"[1]; Y phenol-dU [phenol-dU@15,19,35,46, indole-dU@16,24, amine-dU@43], negative peptide 12",2
TTTTTAACACGACGTTACTGTGGTCATCACAGGATGAGCCTGTCGTGCCATG [PEP 2.18],binding signal,"[1]; Y phenol-dU [phenol-dU@15,19,35,46, indole-dU@16,24, amine-dU@27,43], negative peptide 9",0
TTTTTAACACGACTATTCTGTGAGTCTCGAACTGCGACAACGTGGGCCCATG [PEP 4.18],binding signal,"[1]; Y phenol-dU [14,16,17,19,25,27], negative peptide 4",10
TTTTTAACACGACTGCACTGTGAATCTCGAACGCATCGGGAGTCGTGCCATG [PEP 3.15],binding signal,"[1]; Y phenol-dU [14,25,27,43 (amine-dU), 19,46 (phenol-dU), 36 (indole-dU)], negative peptide 39",9
TTTTTAACACGACTTGGGTTCGGAAGGCGAACCGCAGCAATGTGGGCCCATG [PEP 1.22],binding signal,"[1]; Y phenol-dU [amine-dU @14, phenol-dU @15,20, indole-dU @19], negative peptide 2",8
TTTTTAAGCCCACAAAAGTTCGGGCAGCACAGGTCGCTGAGGTCGTGCCATG [PEP 4.14],binding signal,"[1]; Y phenol-dU [19,38 indole-dU, 20,34,46 phenol-dU, 43 amine-dU], negative peptide 15",2
TTTTTAAGCCCACAAGCGTTCGGCTCTCATAGATCGTTGACGTGGGCCCATG [PEP 4.19],binding signal,"[1]; Y phenol-dU [19,20,25,27,34,38], negative peptide 0",0
TTTTTAAGCCCACACGTGTTCGGATCGCACAGTTATTGGCAGTCGTGCCATG [PEP 4.20],binding signal,"[1]; Y phenol-dU [17,19,20,25,34,36,43,46], negative peptide 3",4
TTTTTAAGCCCACATACGTTCGATGGTCACAGATTGGGCAAGTCGTGCCATG [PEP 2.02],binding signal,"[2]; Y phenol modified dU [15,19,20,24,27,34,35,43,46]",55 ELISA signal
TTTTTAAGCCCACATAGGTTCGGTGGTCACAGTGTGGTGCGGTGGGCCCATG [PEP 2.16],binding signal,"[1]; Y phenol-dU [15,19,20,24,27,35,38], negative peptide 5",4
TTTTTAAGCCCACATGCCTGTGGTCATCGAACATTGGGCCGGTCGTGCCATG [PEP 2.13],binding signal,"[1]; Y phenol-dU [15,19,24,27,34,35,43,46], negative peptide 11",0
TTTTTAAGCCCACCAGGGTTCGGGAGCCGAACGCCAGCACTGTCGTGCCATG [PEP 3.24],binding signal,"[1]; Y phenol-dU [19 (indole-dU), 20,46 (phenol-dU), 43 (amine-dU)], negative peptide 22",5
TTTTTAAGCCCACCCGAGTTCGTCCAGCGAACCACGCGCGTGTCGTGCCATG [PEP 4.11],binding signal,"[2]; Y phenol modified dU [19,20,23,43,46]",0 ELISA signal
TTTTTAAGCCCACCTCACTGTGCAAGTCACAGGTCGGCACCGTGGGCCCATG [PEP 3.23],binding signal,"[1]; Y phenol-dU [15,19,34 (phenol-dU), 27 (amine-dU)], negative peptide 35",5
TTTTTAAGCCCACCTGACTGTGGTGGGCACAGTTCGCCATCGTGGGCCCATG [PEP 1.14],binding signal,"[1]; Y phenol-dU [15 phenol-dU, 19 phenol-dU, 24 indole-dU, 34 phenol-dU, 40 indole-dU], negative peptide 5",2
TTTTTAAGCCCACGACACTGTGGCCAACACAGTACATGCATGTGGGCCCATG [PEP 3.07],binding signal,"[1]; Y phenol-dU [phenol-dU@19], negative peptide 64",10
TTTTTAAGCCCACGCCAGTTCGGTCAACGAACTACGGTGATGTGGGCCCATG [PEP 4.17],binding signal,"[1]; Y phenol-dU [19,20,24,38], negative peptide 0",0
TTTTTAAGCCCACGGCCGTTCGGCCACCACAGTGTGGCAGCGTCGTGCCATG [PEP 4.13],binding signal,"[1]; Y phenol-dU [19 indole-dU, 20,35,46 phenol-dU, 43 amine-dU], negative peptide 0",0
TTTTTAAGCCCACGGGGCTGTGAGCAACGAACATTGGCACAGTCGTGCCATG [PEP 4.21],binding signal,"[1]; Y phenol-dU [19,34,35,43,46], negative peptide 8",0
TTTTTAAGCCCACGGGTCTGTGGTCACCGAACGACGTGGCAGTGGGCCCATG [PEP 2.14],binding signal,"[1]; Y phenol-dU [17,19,24], negative peptide 7",2
TTTTTAAGCCCACGGGTGTTCGACAGACACAGCAATACATCGTGGGCCCATG [SNAP.03],binding signal,"[2]; Y phenol modified dU [17,19,20,36,40]",21 ELISA signal
TTTTTAAGCCCACGGTGCTGTGGAAGCCACAGTACAATGGAGTGGGCCCATG [PEP 4.22],binding signal,"[1]; Y phenol-dU [16,19,38], negative peptide 3",5
TTTTTAAGCCCACGTTTGTTCGGTGGTCACAGCACGCCACGGTCGTGCCATG [PEP 2.08],binding signal,"[1]; Y phenol-dU [15,16,17,19,20,24,27,43,46], negative peptide 9",8
TTTTTAAGCCCACTGGCCTGTGGTCAGCGAACTGTGCGCTGGTGGGCCCATG [PEP 2.10],binding signal,"[1]; Y phenol-dU [14,19,24,35,40], negative peptide 2",7
TTTTTAAGCCCACTTCACTGTGGCTCGCACAGGCCGATGGGGTCGTGCCATG [PEP 1.23],binding signal,"[1]; Y phenol-dU [amine-dU @14,25,43, phenol-dU @15,19,46, indole-dU @38], negative peptide 0",0
TTTTTAAGCCCACTTGGCTGTGCACATCACAGAACAAGCAGGTGGGCCCATG [PEP 2.11],binding signal,"[1]; Y phenol-dU [14,15,19,27], negative peptide 2",0
